Data reported in patent US20210317209A1 (University of Texas, published 2021).

How the values were obtained:
[1] = molecular target: T1, recombinant human CD79b protein (human, UniProt P40259 29-159, limits assumed); experiment: Octet assay
T1 sequence (looked up): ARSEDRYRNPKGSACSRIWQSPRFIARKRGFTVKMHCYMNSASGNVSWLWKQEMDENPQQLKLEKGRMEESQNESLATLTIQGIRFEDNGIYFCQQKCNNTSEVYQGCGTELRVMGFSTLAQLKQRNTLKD

[2] = molecular target: T1, recombinant human CD79b protein; experiment: ELISA on recombinant human CD79b protein
[3] = molecular target: T1, recombinant human CD79b protein; experiment: column EC50(ng/ml) of the drawn table; the table names no assay, the filing's only titration is the ELISA on recombinant human CD79b protein of FIG. 2B

Kd [1]: 1.44 nM
EC50 (read off the curve) [2]: ~0.02 mg/L
EC50 [3]: 0.0162 mg/L
B1: anti-human CD79b monoclonal antibody clone 14 (IgG1) (antibody, V domains shown)
VH: EVQLQESGPELKKPGETVKISCKASGYTFTDYSMHWVKQAPGKGLKWMGWINTETGEPTYADDFKGRFAFSLETSASTAYLQINNLKNDDTATYFCNMDSWGQGTSVTVSS
VL: QIVLTQSPAIMSASPGEKVTMTCSASSSVSYMWWYHQKPGSSPRLLIFDTSNLASGVPVRFSGSGSGTSYSLTISRMEAEDAATYYCQQWTSYPYTFGGGTKLEIK
notes: Murine hybridoma antibody, IgG1; It was conjugated with a fluorochrome for cell staining
